Assay: yeast display, Sf9 membrane polyspecificity reagent, FACS + sequencing; frameworks hold sequencing errors
In short: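 A synthetic nanobody library was expressed on Saccharomyces cerevisiae BJ5465 by galactose induction for 36–48 hours. The library was stained for 1 hour at 4 °C with 10% biotinylated, detergent-solubilized Sf9 membrane reagent and enriched with streptavidin microbeads before FACS. Low and high (top ~1%) gates were set on anti-HA fluorescence for expression and streptavidin fluorescence for reagent binding, and each polyreactivity label reflects the gate of origin.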

Sequence | polyreactivity (PSR sort gate)
QVQLVESGGGLVQAGGSLRLSCAASGFIFTLNAMGWYRQAPGKERELVASISSGVSTNYADSVKGRFTISRDNAKNTVYLQMNSLKPEDTAVYYCAARDTGPDGFEGDYWGQGTQVTVSS | low polyreactivity
QVQLVESGGGLVQAGGSLRLSCAASGSTFPQYAMGWYRQAPGKERELVAAISARGDSTSYADSVKGRFTISRDNAKNTVYLQMNSLKPEDTAVYYCNAPSRNGFSVTDTPDGYDYWGQGTQVTVSS | low polyreactivity
QVQLVESGGGLVQAGGILRLSCAASGSIFRQYARGWYRQAPGKERAFVAAITRRGGSTRYADSVKGRFTISRDNAKNTVYLQMNSLKPEDSAVEYCAARGVPGLHRYYYWGQGTQVTVSS | high polyreactivity
QVQLEESGGGLVQAGGSLRLTCAASGSIFGSYTMGWYRKAPGKERELVAVISYSGGSTYYADSVKGRFSISRDNAKNTVYLQMNSLKPEDTAVYYCNAARKGVGYVHPYDFWGQGTQVTVSS | high polyreactivity
QVQLVESGGGLVQAGGSLRLSCAASGYTFRYNAMGWYRQAPGKERELVASITFSGGRTFYADSVKGRFTISRDNAKNTVYLQMNSLKPEDTAVYYCAAVRWGRRSGGLVAEYDYWGQGTQVTVSS | high polyreactivity
QVQLVESGGGLVQAGGSLRLSCAASGRNFSHNAMGWYRQAPGKERELVAAISSRAGRTYADSVKGRFTISRDNAKYTVYLQMNSLKQEDTGVYYCAVRSKGKDVGYWGQGTQVTVSS | high polyreactivity
QVQLVESGGGLVQAVGSHRLSCAASGFIFTSYAMGWYRQAPGKERELVAAITRSGGRTYYADSVKGRFTISRDNAKNTVYLQMNSLKPEDTAVYYCAAVTFYQSPARGYWGQGTQVTVSS | high polyreactivity
QVQLVESGGGLVQAGGSLRLSCAASGFIFDTYVMGWYRQAPGKERELVAAISRTGGRTYYADSVKGRFTISRDNAKNTVYLQMNSLKPEDTAVYYCAAKVYYPYLFTSYDYWGQGTQVTVSS | high polyreactivity
QVQLVESGGGLVQAGGSLRLSCAASGFTFSDNAMGWDRQAPGKERELVATISQSSGSTSYADSVKGRFTISRDYAKNTVYLQLNSLKPEDTAVYSCANRRLFYWGKGTQVTVSS | low polyreactivity
QVQIVESGGGLVQAGGSLRLSCAASGRIFRSNTMGWYRPAPGKERELVARISKRGGSTNYADSVKGRFTISRDIAKNTVYLQMNRLKPEDTAVYYCAARYYYAGYYVKYYYWGQGTQVTVSS | high polyreactivity
QVELVESGGGLVQAGGILRLSCAASGSTFSIYAMGWYRQGPGKERELVAAISGDGITKYADSVKGRFTISRDNAKNTVYLQMNSLKPEDTAVYYCNAHELTDDGKMDSWGQGTQVTVSS | low polyreactivity
QVQLVESGGGLVQAGGSLRLSCAASGLIFGYNAMGWYRQAPGKERELVAAISSSGGSTSYADSVKGRFTISRDNAKNTVYLQMNSLKPEDTAVYYCAAKPGRYADYDYNSWGQGTQVTVSS | low polyreactivity
QVQLVESGGGLVQAGGSIRLSCAASGRTFPVNAMGWYRQAPGKERELVAAITTNGGRTYYADSVKGRFTISRDNEKNTVYLQMNSLKPEDTAVYYCATGAYTDKRYGYWGQGTQVTVSS | high polyreactivity
QVQLVESGGGLVQAGGSLLLSCAGTARNFTYNAMGWYRQAPGKERELVARITSGGNTNYADSVKGRFTISRDNAKNTVYLQMNSLKPEDTAVYYGATGLFWFTNRYGSWGQGTQVTVSS | low polyreactivity
QVQLVESGGGLVQAGGSLRLSCAASGSIFTPNAMGWYRQAPGKERELVAAISWSGARTYYADSVKGRFTISRDNAKNTVYLQMNSLKPEDTAVYYSYAFGSWGQGTQVTVSS | high polyreactivity
QVQLVESGGGLVQAGGSLRLICAASGRTFAGNAMGWYRQAPGKERELVAAISQGGGYTYYADSVKGRFTISRDNAKNNVYLQMNSLKPEDTAVYYCAAEIPRRWASFATLWYDYLGQGTQVTVSS | low polyreactivity

Sequence | polyreactivity (PSR sort gate)
QVQLVESGGGLVQAGGSLRLSCAASGIIFPYYAMGWYRPAPGKERELVAAITSSGGSTYYADSVKGRFTISRDNAKNTVYLQMNSLKPEDSAVYYCAAQTWGHGGDSWGQGTQVTVSS | high polyreactivity
QVQLVESCGGLVQAGGSLRLSCAASGSTIVSNAMGWNRQAPGKERDLVAAITSGGTTNYADSVKGRFTISRDNAKNTVYLQMISLKPEETAVYYCAKRETVYYVNHPFTYSHDYCGQGTQVTVSS | low polyreactivity
QVQLVESGGGLVQEGGSLRLRCAASGSIFPYNAMGWYRQAPGKERELVAAISSTGGRTYYADSVKGRFTISRDNAKNTVYLQMNSLKPEDTAVYYCAARLYDKPGFYSWGEGTQVTVSS | high polyreactivity
QVQLVESGGGLVQAGGSLRLSCAASGSIFARYAIGWYRQAPGKERELVAAISSDGSTYYADSVKGRFTISRDNAKNTVYLQMNSLKPEDTAVYYCAARAFYYAGDWYGYWGQGTQVTVSS | high polyreactivity
QVQLVESGGGLVQAGGSLRLSCAASGFIFQYYAMGWYRQAPGKERELVAVIRSGGSTYYADSVKGRFTISRDNAKNTVYLQMNSLKPEDTAVYYCARPSRGPPRGYYWGHGTQVTVSS | high polyreactivity
QVQLVESGGGLVQAGGSLRLSCAASGRTFNGNTMGWYRQAPGKERQLVAAISRNGGRTYYADSVKGRFTISRDNAKNTVYLQMNSLKPEDTAVYYCATVYRPGGVYGYWGQGTQVTVSS | high polyreactivity
QVQLVESGGGLVQAGGSLRLSCAASGRIFPWYAMGWYRQAPGKERELVAAIKWDSGSTYYADSVKGRFTISRDNAKNTVYLQMNSLKPEDTAVYYCAAEYVAWYYGLYFSYDYWGQGTQVTVSS | high polyreactivity
QVQLVESGGGLVQAGGSLRLSCAASGSIFGYNTMGRYRQAPGKERELVAAISYRGGSTYADSVKGRFTISRDNAKNTVYLQMNSLKPEDTAVYYCAKRSIVGYRYSGYDYWGQGTQVTVSS | high polyreactivity
QVQLVESVGGLVQAGGSLRLSCAASGRTISRNAMGWYRQAPGKERELVAAISASGGRTYYADSVKGRFTISRDNAKNTVYLQMKSLKPEDTEVYFCAASTTGYRYYDYCGQGTQVTVSS | high polyreactivity
QVQLVESGGGLVQAGGSLRLSCAASGFIYNAMGWYRQAPGKERELVAAISYSGGSTYYADSVKGRFTISRDNAKNTVYLQMNILKPEDTAVYYCAAGYYPFNYWGQGTQVTVSS | high polyreactivity
QVQLVESGGGLVQAGGSLRLSCAASGSIFGPYAMGWYRQAPGKERELVAAITWSGDSTYYADSVKGRFTISRDNAKNTVYLQMNSLKTEDTAVYYCAAETFIWGQGTQVTVSS | low polyreactivity
QVQLVESGGGLVQAGGSLRLSCAASGRIFRGNTMGWYRQAPGKERELVAAITRGGSTSYADSVKGRFTISRDNAKNTVYLQMNSLKPEDTAVFYCATRTHGEGTRRDSWGQGTQVTVSS | low polyreactivity
QVQLVESGGGLVQAGGSLRLSCAASGSTFYKYGMGWYRQAPGKERELVAAISGSGDSTYYADSVKGRFTISRDNAKNTVYLQMNSLKPEDTAVYYCNAGPWWYLHEYDYWGQGTQVTVSS | low polyreactivity
QVQLVESGGGLVQAGGSLRLSCAASGSTFWHYVMGWYRQAPGKERELVAAISNGGRTNYADSVKGRFTISRDNAKNTVYLHMKSMKPEVTAVYYCAARRRVSYHLYGYWGQGTQVTVSS | high polyreactivity
QVQLVESGGGLVQAGGSLRLSSSASGSIFASNAMGWYRQEPGKERELVAAINSGDSTNYADSVKGRFTISRDNAKNTVYLQMNSLKPEDTAVYYCNAEYRYYQKTPVLYTNVEYDYWGQGTQVTVSS | low polyreactivity
QVQLVESGGGLVQAGGSLRLSCAASGSTFWYYAMGWYRQAPGKERELVAAITTGGDTTNYADSVKGRFTISRDNAKNTVYLQMNSLKPEDTAVYYCARDTGYDLIVLPDDSWGQGTQVTVSS | low polyreactivity

Source: the nanobody polyreactivity screen of Harvey et al. (2022)
